For test [1], the target named is C14:0-ACP.
In test [2] the target is C16:0-ACP.
The target of test [3] is C14:0-ACP. The source holds these as a separate data set.
The target in test [4] is C16:0-ACP. The source holds these as a separate data set.

The substance “Cuphea hookeriana Class II thioesterase CUPH-1 (cDNA clone CMT9) (enzyme)” displayed a Fatty Acyl Composition of Transgenic Canola Seeds (mol %), 14:0 with C14:0-ACP [1] of 0.98 mol %. Further, the Fatty Acyl Composition of Transgenic Canola Seeds (mol %), 16:0 with C16:0-ACP [2] was determined as 27.6 mol %. In addition, the Fatty Acids (nmol/ml), total fatty acid analysis of liquid cultures of CUPH-1 transformed K27 (fadD) in the test with 14:1-ACP is 1.1 nmol/mL; in the test with C12:0-ACP it was 2 nmol/mL; in the test with C14:0-ACP [3], 225 nmol/mL; with 16:1-ACP it was 124 nmol/mL; in the test with C18:1-ACP, 92.7 nmol/mL; in the test with C16:0-ACP [4] it was 281 nmol/mL. This substance displayed a Fatty Acids (nmol/ml), total fatty acid analysis of liquid cultures of CUPH-1 transformed K27 (fadD) with 12:1-ACP of 0.3 nmol/mL.
Consider “elm Class II acyl-ACP thioesterase (ULM-1) (enzyme)”, for which the Fatty Acyl Composition of Transgenic Canola Seeds (mol %), 10:0 in the test with C10:0-ACP was found to be 3.94 mol %. In the test with C16:0-ACP [2], this substance gave a Fatty Acyl Composition of Transgenic Canola Seeds (mol %), 16:0 of 20 mol %.
